Laboratory results: paper PMC4300165, “Highly thermostable GH39 β-xylosidase from a Geobacillus sp. strain WSUCF1” (BMC Biotechnology, 2014)
One block for each molecule: values may come before it.

Experiments:
WSUCF1 β-xylosidase = biological target: T1, WSUCF1 β-xylosidase (Geobacillus zalihae, UniProt A0A7H1RXW2); experiment: residual pNPX hydrolysis with added xylose; assay type: biochemical; details: pNPX 2.5 mg/ml stock as substrate, phosphate buffer pH 6.5, 70°C, 10 min; end-product inhibition
T1 construct: gene IC807_05610; full-length ORF of 1509 bp (about 502 residues); N-His SUMO fusion expressed in E. coli, tag cleaved with SUMO protease; 58 kDa, apparent tetramer of 230 kDa
T1 sequence (A0A7H1RXW2 2-503): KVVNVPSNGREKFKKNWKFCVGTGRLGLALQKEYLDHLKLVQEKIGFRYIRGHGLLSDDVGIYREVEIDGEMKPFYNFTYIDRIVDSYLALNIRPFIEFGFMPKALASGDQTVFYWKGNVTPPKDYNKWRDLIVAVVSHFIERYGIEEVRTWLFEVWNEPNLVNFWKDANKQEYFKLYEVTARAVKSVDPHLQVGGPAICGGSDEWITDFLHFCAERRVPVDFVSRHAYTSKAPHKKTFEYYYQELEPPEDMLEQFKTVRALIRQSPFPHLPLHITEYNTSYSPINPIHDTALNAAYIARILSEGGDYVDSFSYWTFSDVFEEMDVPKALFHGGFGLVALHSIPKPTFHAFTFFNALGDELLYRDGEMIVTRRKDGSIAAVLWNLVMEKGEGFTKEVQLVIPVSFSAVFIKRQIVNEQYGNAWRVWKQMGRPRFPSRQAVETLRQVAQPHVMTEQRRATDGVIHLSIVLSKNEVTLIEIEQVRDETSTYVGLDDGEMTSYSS

[1] = biological target: WSUCF1 β-xylosidase (GH39 β-xylosidase from Geobacillus sp. strain WSUCF1) (Geobacillus sp. strain WSUCF1); experiment: SDS-PAGE without heat treatment, with zymogram; purified enzyme mixed with 2X SDS sample buffer, loaded on an 8-16% gradient SDS-PAGE gel without heating (230 kDa, active) or after 95°C for 2 min (58 kDa, inactive); tetramer inferred from the 4-fold increase in apparent mass
purified protein = substrate: O=[N+]([O-])c1ccc(O[C@@H]2OC[C@@H](O)[C@H](O)[C@H]2O)cc1; experiment: purified protein; assay type: biochemical, Geobacillus zalihae; details: 50 mM phosphate buffer pH 6.5, 70°C, 0–15 mM substrate, Table 2 prints 2.3

% activity retained at 300 mM (WSUCF1 β-xylosidase): 50%
Molecule: OC1OC[C@@H](O)[C@H](O)[C@H]1O (stereo partly drawn) [xylose]

stoichiometry N [1]: 4
Molecule: WSUCF1 β-xylosidase (GH39 β-xylosidase from Geobacillus sp. strain WSUCF1) (enzyme)

B1: WSUCF1 β-xylosidase (Geobacillus zalihae) (protein)
chain: T1 sequence (A0A7H1RXW2 2-503)
notes: full-length ORF of 1509 bp (about 502 residues); N-His SUMO fusion expressed in E. coli, tag cleaved with SUMO protease; 58 kDa, apparent tetramer of 230 kDa
Km (purified protein): 2380 µM
